Earlier results in paper PMC9252436.
pKd: −log10 of the molar value.

Biological target: CD47 (Homo sapiens) (UniProt Q08722)
Sequence of UniProt Q08722 (Q08722 19-323): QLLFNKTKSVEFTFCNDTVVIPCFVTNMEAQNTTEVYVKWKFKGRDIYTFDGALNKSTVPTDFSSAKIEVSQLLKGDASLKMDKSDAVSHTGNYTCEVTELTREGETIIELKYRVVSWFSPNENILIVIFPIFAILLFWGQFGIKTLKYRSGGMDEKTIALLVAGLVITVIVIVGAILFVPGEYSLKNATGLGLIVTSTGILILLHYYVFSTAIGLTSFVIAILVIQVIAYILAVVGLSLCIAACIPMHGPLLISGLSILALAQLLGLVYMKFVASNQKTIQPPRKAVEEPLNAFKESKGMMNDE

Substance: SIRPα (from UniProt P78324)
- pKd: 7.80
